Test results as given in patent US20250250343A1 (UNITY BIOTECHNOLOGY, published 2025).
Read-outs that look alike come from different tables or passages of the source. Values belong to the binder of their own block, whether it stands above or below them.

Legend:
Assay in all cases: cell-based or functional assay
human Tie2 [1] = target: T1, human Tie2 (human, UniProt Q02763 23-1124)
VEGF [2] = target: T2, VEGF (human, UniProt P15692-4)
human Tie2 [3] = target: T1, human Tie2; remark: listed apart in the source
human Tie2 [4] = target: T1, human Tie2; remark: listed apart in the source
VEGF [5] = target: T2, VEGF; remark: listed apart in the source
human Tie2 [6] = target: T1, human Tie2; remark: listed apart in the source
human Tie2 [7] = target: T1, human Tie2; remark: listed apart in the source
human Tie2 [8] = target: T1, human Tie2; remark: listed apart in the source
human Tie2 [9] = target: T1, human Tie2; remark: listed apart in the source
VEGF [10] = target: T2, VEGF; remark: listed apart in the source
human Tie2 [11] = target: T1, human Tie2; remark: listed apart in the source
VEGF [12] = target: T2, VEGF; remark: listed apart in the source

T1 sequence (Q02763 23-1124): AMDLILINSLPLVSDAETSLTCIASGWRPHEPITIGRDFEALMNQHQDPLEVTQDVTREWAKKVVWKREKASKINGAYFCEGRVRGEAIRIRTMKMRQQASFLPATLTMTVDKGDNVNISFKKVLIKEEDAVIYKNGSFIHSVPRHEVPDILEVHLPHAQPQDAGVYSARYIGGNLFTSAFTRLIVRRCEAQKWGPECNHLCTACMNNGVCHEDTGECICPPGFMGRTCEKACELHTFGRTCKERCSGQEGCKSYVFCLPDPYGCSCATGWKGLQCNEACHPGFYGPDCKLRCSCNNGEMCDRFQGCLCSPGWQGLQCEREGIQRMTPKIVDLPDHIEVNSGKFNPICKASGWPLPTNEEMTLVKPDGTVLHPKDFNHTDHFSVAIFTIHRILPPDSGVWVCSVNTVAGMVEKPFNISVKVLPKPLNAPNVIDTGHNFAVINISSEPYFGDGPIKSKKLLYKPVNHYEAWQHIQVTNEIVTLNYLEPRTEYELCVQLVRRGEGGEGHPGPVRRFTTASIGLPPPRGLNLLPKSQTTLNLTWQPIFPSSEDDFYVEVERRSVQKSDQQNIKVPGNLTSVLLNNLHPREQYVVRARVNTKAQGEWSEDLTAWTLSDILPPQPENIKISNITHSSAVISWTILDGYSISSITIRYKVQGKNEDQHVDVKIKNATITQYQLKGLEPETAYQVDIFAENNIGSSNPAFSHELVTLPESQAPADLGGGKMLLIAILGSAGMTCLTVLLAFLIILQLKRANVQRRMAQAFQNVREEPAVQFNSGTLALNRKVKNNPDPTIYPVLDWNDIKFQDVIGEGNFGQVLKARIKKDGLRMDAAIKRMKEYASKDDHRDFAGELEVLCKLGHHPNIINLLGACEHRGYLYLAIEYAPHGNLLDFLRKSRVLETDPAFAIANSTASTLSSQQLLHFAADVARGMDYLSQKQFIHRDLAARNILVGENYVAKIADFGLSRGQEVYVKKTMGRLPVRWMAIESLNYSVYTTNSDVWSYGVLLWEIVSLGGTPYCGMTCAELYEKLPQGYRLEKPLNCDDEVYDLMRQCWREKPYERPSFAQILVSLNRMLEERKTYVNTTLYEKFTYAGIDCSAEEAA
T2 sequence (P15692 other isoform, or with tags, fused parts or gaps limits assumed): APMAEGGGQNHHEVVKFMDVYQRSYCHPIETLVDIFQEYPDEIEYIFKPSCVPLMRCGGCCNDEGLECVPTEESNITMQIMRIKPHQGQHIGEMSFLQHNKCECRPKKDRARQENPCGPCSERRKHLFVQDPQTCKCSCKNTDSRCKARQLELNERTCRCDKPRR

phosphorylated Akt potency in HUVEC cells, against Construct #5 (human Tie2 [1]): ~5 fold | EC50, VEGF neutralisation, KDR/NFAT-RE HEK293 luciferase reporter (VEGF [2]): 1.3 nM | EC50, pTie2 in HUVEC (in vitro potency) (human Tie2 [3]): 4.2 nM | EC50, pTie2 in HUVEC, W/ VEGF (panels A-C print 'W/ VEGF 50nM'; paragraph 153 says 20 nM) [Panel D] (human Tie2 [4]): 0.39 nM | EC50, pTie2 in HUVEC, W/O VEGF [Panel D] (human Tie2 [4]): 1.33 nM | EC50, VEGF inhibition, KDR/NFAT-RE HEK293 luciferase reporter [Panel C] (VEGF [5]): 1.6 nM | EC50, pTIE2 in HUVEC [Panel C] (human Tie2 [6]): 3.56 nM | EC50, pAkt in HUVEC (MSD ELISA) [Panel B] (human Tie2 [7]): 0.909 nM | EC50, pAkt in HUVEC (MSD ELISA) [Panel B] (human Tie2 [8]): 1.33 nM | EC50, pTie2 in HUVEC, W/ VEGF (20 nM VEGF-165 per paragraph 153) [Panel E] (human Tie2 [9]): 0.39 nM | EC50, pTie2 in HUVEC, W/O VEGF [Panel E] (human Tie2 [9]): 1.33 nM
B1: Construct #1 (bispecific antibody, human IgG1, kappa, L234A L235A)
heavy: DVQLVESGGGVVRPGESLRLSCTASGFTFDSYGMSWVRQAPGKGLEWVSSINVGDNTYYADSVRGRFIISRDSSRNTLYLQMNSLTAEDTAVYYCANWNSFFDYWGLGTLVTVSSASTKGPSVFPLAPSSKSTSGGTAALGCLVKDYFPEPVTVSWNSGALTSGVHTFPAVLQSSGLYSLSSVVTVPSSSLGTQTYICNVNHKPSNTKVDKKVEPKSCDKTHTCPPCPAPEAAGGPSVFLFPPKPKDTLMISRTPEVTCVVVDVSHEDPEVKFNWYVDGVEVHNAKTKPREEQYNSTYRVVSVLTVLHQDWLNGKEYKCKVSNKALGAPIEKTISKAKGQPREPQVYTLPPSREEMTKNQVSLTCLVKGFYPSDIAVEWESNGQPENNYKTTPPVLDSDGSFFLYSKLTVDKSRWQQGNVFSCSVMHEALHNHYTQKSLSLSPGKSDTGRPFVEMYSEIPEIIHMTEGRELVIPCRVTSPNITVTLKKFPLDTLIPDGKRIIWDSRKGFIISNATYKEIGLLTCEATVNGHLYKTNYLTHRQTNTIIDVVLSPSHGIELSVGEKLVLNCTARTELNVGIDFNWEYPSSKHQHKKLVNRDLKTQSGSEMKKFLSTLTIDGVTRSDQGLYTCAASSGLMTKKNSTFVRVHEK
light: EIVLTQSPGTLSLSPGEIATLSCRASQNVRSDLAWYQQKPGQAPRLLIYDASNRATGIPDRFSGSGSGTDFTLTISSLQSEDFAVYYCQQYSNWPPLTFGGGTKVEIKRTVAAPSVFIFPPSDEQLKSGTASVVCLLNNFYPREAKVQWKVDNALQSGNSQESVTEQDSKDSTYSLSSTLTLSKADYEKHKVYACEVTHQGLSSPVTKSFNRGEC

EC50, VEGF neutralisation, KDR/NFAT-RE HEK293 luciferase reporter (VEGF [2]): 0.245 nM | EC50, pTie2 in HUVEC (in vitro potency) (human Tie2 [3]): 3.55 nM | EC50, pTie2 in HUVEC, W/ VEGF (panels A-C print 'W/ VEGF 50nM'; paragraph 153 says 20 nM) [Panel D] (human Tie2 [4]): 0.87 nM | EC50, pTie2 in HUVEC, W/O VEGF [Panel D] (human Tie2 [4]): 2.24 nM | EC50, VEGF inhibition, KDR/NFAT-RE HEK293 luciferase reporter [Panel C] (VEGF [5]): 0.31 nM | EC50, pTIE2 in HUVEC [Panel C] (human Tie2 [6]): 2.42 nM | EC50, pAkt in HUVEC (MSD ELISA) [Panel B] (human Tie2 [8]): 0.87 nM
B4: Construct #3 (bispecific antibody, human IgG1, kappa, L234A L235A)
heavy: DVQLVESGGGVVRPGESLRLSCTASGFTFDSYGMSWVRQAPGKGLEWVSSINVGDNTYYADSVRGRFIISRDSSRNTLYLQMNSLTAEDTAVYYCANWNSFFDYWGLGTLVTVSSASTKGPSVFPLAPSSKSTSGGTAALGCLVKDYFPEPVTVSWNSGALTSGVHTFPAVLQSSGLYSLSSVVTVPSSSLGTQTYICNVNHKPSNTKVDKKVEPKSCDKTHTCPPCPAPEAAGGPSVFLFPPKPKDTLMISRTPEVTCVVVDVSHEDPEVKFNWYVDGVEVHNAKTKPREEQYNSTYRVVSVLTVLHQDWLNGKEYKCKVSNKALGAPIEKTISKAKGQPREPQVYTLPPSREEMTKNQVSLTCLVKGFYPSDIAVEWESNGQPENNYKTTPPVLDSDGSFFLYSKLTVDKSRWQQGNVFSCSVMHEALHNHYTQKSLSLSPGKGGGGSGGGGSGGGGSSDTGRPFVEMYSEIPEIIHMTEGRELVIPCRVTSPNITVTLKKFPLDTLIPDGKRIIWDSRKGFIISNATYKEIGLLTCEATVNGHLYKTNYLTHRQTNTIIDVVLSPSHGIELSVGEKLVLNCTARTELNVGIDFNWEYPSSKHQHKKLVNRDLKTQSGSEMKKFLSTLTIDGVTRSDQGLYTCAASSGLMTKKNSTFVRVHEK
light: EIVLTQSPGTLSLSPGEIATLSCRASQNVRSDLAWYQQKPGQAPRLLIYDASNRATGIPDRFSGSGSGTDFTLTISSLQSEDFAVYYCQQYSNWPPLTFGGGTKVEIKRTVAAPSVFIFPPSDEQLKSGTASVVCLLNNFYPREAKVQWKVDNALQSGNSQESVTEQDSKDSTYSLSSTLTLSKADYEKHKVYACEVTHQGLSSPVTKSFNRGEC

EC50, VEGF neutralisation, KDR/NFAT-RE HEK293 luciferase reporter (VEGF [2]): 0.854 nM
B5: #13 (bispecific antibody, human IgG1, kappa, L234A L235A)
heavy chain: DVQLVESGGGVVRPGESLRLSCTASGFTFDSYGMSWVRQAPGKGLEWVSSINVGDNTYYADSVRGRFIISRDSSRNTLYLQMNSLTAEDTAVYYCANWNSFFDYWGLGTLVTVSSASTKGPSVFPLAPSSKSTSGGTAALGCLVKDYFPEPVTVSWNSGALTSGVHTFPAVLQSSGLYSLSSVVTVPSSSLGTQTYICNVNHKPSNTKVDKKVEPKSCDKTHTCPPCPAPEAAGGPSVFLFPPKPKDTLMISRTPEVTCVVVDVSHEDPEVKFNWYVDGVEVHNAKTKPREEQYNSTYRVVSVLTVLHQDWLNGKEYKCKVSNKALGAPIEKTISKAKGQPREPQVYTLPPSREEMTKNQVSLTCLVKGFYPSDIAVEWESNGQPENNYKTTPPVLDSDGSFFLYSKLTVDKSRWQQGNVFSCSVMHEALHNHYTQKSLSLSPGKKEHVRVFTSNKKTMLGSSAACTYLGQDSRTVGDITLTSLFKKMESGSQTKLDRNVLKKHQHKSSPYEWNFDIGVNLETRATCNLVLKEGVSLEIGHSPSLVVDIITNTQRHTLYNTKYLHGNVTAECTLLGIEKYTANSIIFGKRSDWIIRKGDPILTDLPFKKLTVTINPSTVRCPIVLERGETMHIIEPIESYMEVFPRGTDS
light chain (kappa): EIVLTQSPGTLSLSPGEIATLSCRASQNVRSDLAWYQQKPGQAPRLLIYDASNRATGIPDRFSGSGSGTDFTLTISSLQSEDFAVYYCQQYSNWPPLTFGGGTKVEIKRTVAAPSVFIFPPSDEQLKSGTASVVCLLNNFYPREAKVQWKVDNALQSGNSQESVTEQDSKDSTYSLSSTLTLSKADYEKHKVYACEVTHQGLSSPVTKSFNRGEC

Second part, the binder before the results:

B2: #2 (bispecific antibody, human IgG1, kappa, L234A L235A)
heavy chain: DVQLVESGGGVVRPGESLRLSCTASGFTFDSYGMSWVRQAPGKGLEWVSSINVGDNTYYADSVRGRFIISRDSSRNTLYLQMNSLTAEDTAVYYCANWNSFFDYWGLGTLVTVSSASTKGPSVFPLAPSSKSTSGGTAALGCLVKDYFPEPVTVSWNSGALTSGVHTFPAVLQSSGLYSLSSVVTVPSSSLGTQTYICNVNHKPSNTKVDKKVEPKSCDKTHTCPPCPAPEAAGGPSVFLFPPKPKDTLMISRTPEVTCVVVDVSHEDPEVKFNWYVDGVEVHNAKTKPREEQYNSTYRVVSVLTVLHQDWLNGKEYKCKVSNKALGAPIEKTISKAKGQPREPQVYTLPPSREEMTKNQVSLTCLVKGFYPSDIAVEWESNGQPENNYKTTPPVLDSDGSFFLYSKLTVDKSRWQQGNVFSCSVMHEALHNHYTQKSLSLSPGKGGGGSGGGGSDIQMTQSPSSLSASVGDRVTITCRASQVIRRSLAWYQQKPGKAPKLLIYAASNLASGVPSRFSGSGSGTDFTLTISSLQPEDFATYYCQQSNTSPLTFGQGTKVEIKGQSSRSSGGGGSSGGGGSEVQLVESGGGLVQPGGSLRLSCAASGFSINGSWIFWVRQAPGKGLEWVGAIWPFGGYTHYADSVKGRFTISADTSKNTAYLQMNSLRAEDTAVYYCARWGHSTSPWAMDYWGQGTLVTVSS
light chain (kappa): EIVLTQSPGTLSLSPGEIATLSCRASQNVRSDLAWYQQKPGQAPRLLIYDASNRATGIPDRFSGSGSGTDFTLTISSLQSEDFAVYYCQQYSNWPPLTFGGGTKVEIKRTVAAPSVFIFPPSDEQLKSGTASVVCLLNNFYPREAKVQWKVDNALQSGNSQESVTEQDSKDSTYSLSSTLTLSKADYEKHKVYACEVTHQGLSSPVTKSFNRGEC
EC50, VEGF neutralisation, KDR/NFAT-RE HEK293 luciferase reporter (the sheet's head prints no unit, EC50 in nM per legend paragraph 17) (VEGF [10]): 0.9 nM | EC50, pTie2 in HUVEC (in vitro potency; the sheet's head prints no unit, EC50 in nM per legend paragraph 17) (human Tie2 [11]): 2.1 nM | IC50 (read off the curve); % VEGF activity, KDR/NFAT-RE HEK293 luciferase reporter [Panel A] (VEGF [12]): ~1 nM

B3: #11 (bispecific antibody, human IgG1, kappa, L234A L235A)
heavy chain: DVQLVESGGGVVRPGESLRLSCTASGFTFDSYGMSWVRQAPGKGLEWVSSINVGDNTYYADSVRGRFIISRDSSRNTLYLQMNSLTAEDTAVYYCANWNSFFDYWGLGTLVTVSSASTKGPSVFPLAPSSKSTSGGTAALGCLVKDYFPEPVTVSWNSGALTSGVHTFPAVLQSSGLYSLSSVVTVPSSSLGTQTYICNVNHKPSNTKVDKKVEPKSCDKTHTCPPCPAPEAAGGPSVFLFPPKPKDTLMASRTPEVTCVVVDVSHEDPEVKFNWYVDGVEVHNAKTKPREEQYNSTYRVVSVLTVLAQDWLNGKEYKCKVSNKALGAPIEKTISKAKGQPREPQVYTLPPSREEMTKNQVSLTCLVKGFYPSDIAVEWESNGQPENNYKTTPPVLDSDGSFFLYSKLTVDKSRWQQGNVFSCSVMHEALHNAYTQKSLSLSPGKGGGGSGGGGSDIQLTQSPSSLSASVGDRVTITCSASQDISNYLNWYQQKPGKAPKVLIYFTSSLHSGVPSRFSGSGSGTDFTLTISSLQPEDFATYYCQQYSTVPWTFGQGTKVEIKGQSSRSSGGGGSSGGGGSEVQLVESGGGLVQPGGSLRLSCAASGYDFTHYGMNWVRQAPGKGLEWVGWINTYTGEPTYAADFKRRFTFSLDTSKSTAYLQMNSLRAEDTAVYYCAKYPYYYGTSHWYFDVWGQGTLVTVSS
light chain (kappa): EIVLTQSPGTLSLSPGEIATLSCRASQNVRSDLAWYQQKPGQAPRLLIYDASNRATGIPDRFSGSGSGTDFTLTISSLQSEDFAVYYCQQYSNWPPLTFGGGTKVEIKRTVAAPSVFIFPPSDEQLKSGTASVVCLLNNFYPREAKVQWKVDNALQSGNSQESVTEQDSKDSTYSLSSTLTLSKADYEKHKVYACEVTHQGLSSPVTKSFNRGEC
EC50, VEGF neutralisation, KDR/NFAT-RE HEK293 luciferase reporter (the sheet's head prints no unit, EC50 in nM per legend paragraph 17) (VEGF [10]): 0.107 nM
